Measurements from patent US20240425606A1, “ANTI-IL-11RA ANTIBODIES” (Lassen Therapeutics 1, Inc., priority 2021, published 2024).

T1: IL-11R on STAT3 Reporter (Luciferase)-HEK293 cells (UniProt Q14626 23-422)
T1 sequence (looked up): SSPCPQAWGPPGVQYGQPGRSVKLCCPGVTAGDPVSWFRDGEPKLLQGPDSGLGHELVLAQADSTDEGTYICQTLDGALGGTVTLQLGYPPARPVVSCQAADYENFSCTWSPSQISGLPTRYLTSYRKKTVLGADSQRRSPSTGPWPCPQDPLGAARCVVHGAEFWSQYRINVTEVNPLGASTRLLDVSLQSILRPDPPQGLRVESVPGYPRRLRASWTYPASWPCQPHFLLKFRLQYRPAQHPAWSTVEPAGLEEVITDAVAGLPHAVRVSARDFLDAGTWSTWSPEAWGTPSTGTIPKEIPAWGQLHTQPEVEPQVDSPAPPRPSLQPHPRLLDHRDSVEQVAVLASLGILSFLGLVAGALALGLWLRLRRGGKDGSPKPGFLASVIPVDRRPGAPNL

T2: human IL-11Rα (human, UniProt Q14626 23-363, limits assumed)
T2 construct: Protein coated on ELISA plates and used in solution for BLI; also called hIL-11Rα; hIL-11R
T2 sequence: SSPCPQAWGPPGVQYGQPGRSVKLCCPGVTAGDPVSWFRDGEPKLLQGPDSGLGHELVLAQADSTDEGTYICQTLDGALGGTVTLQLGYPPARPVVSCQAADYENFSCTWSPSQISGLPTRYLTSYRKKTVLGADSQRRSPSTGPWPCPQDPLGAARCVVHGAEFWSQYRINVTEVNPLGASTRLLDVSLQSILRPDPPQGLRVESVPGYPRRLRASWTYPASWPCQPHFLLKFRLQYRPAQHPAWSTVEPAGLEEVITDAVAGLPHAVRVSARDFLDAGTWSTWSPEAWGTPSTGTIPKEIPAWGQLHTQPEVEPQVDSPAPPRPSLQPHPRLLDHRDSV


Columns and labels:
[1] = system: type VI collagen formation (PRO-C6) in fibrotic human PCLS; test: Fibrotic human precision-cut lung slice (PCLS) model, PRO-C6 biomarker of ECM remodeling; assay type: cell-based; conditions: 48 hours
Procedure: Studies were performed to evaluate the effect of the mAb5 antibody on biomarkers reflecting ECM remodeling in a fibrotic human precision-cut lung slice (PCLS) model. The anti-fibrotic effect was investigated at three different concentrations in human ex vivo lung tissue slices prepared from pulmonary fibrosis patients.
Tissue slices were prepared from the subpleural and central region of the fibrotic lung from two human end-stage donors with pulmonary fibrosis (IPF and secondary fibrosis) (see, for example, Hess et al., Toxicol In Vitro. 32:347-61, 2016). For both donors, lung tissue samples from two different regional areas (subpleural and central) were used to generate tissue cores used for PCLS. Adjacent cores were used to achieve serial PCLS for the analysis of one treatment as compared to medium treated PCLS from the same cores. This enables the comparison of densely packed fibrotic areas with fibrotic foci with less affected areas. To ensure the fibrotic status, clinical/demographic information for each patient is provided.
Each treatment was tested with three replicates for each lung region and for each donor.
Preparation and incubation of precision-cut lung slices. Lung lobes were canuled and filled with 37° C. warm 2% low-melting agarose/medium solution. Filled lobes were cooled on ice to polymerise agarose. Tissue cores with a diameter of 8 mm were prepared and cut into approximately 300 μm thick slices using a microtome (Krumdieck tissue slicer, Alabama Research and Development, Muniford, AL, USA or Vibratome OTS-5000, Science Services GmbH, Munich) in Earle's Balanced Salts Solution (EBSS). Tissue slices were incubated in Dulbecco's modified Eagle's medium/nutrient mixture F-12 Ham (DMEM) with L-glutamine and 15 mM HEPES without phenol red. Tissue slices were transferred into petri dishes and washed with DMEM for 2 hours. Medium was changed four times every 30 minutes in order to remove cell debris.
Two PCLS per well were left over night in 500 μL DMEM in 24-well plates for a final washing step. Next day, PCLS were treated with experimental treatments or controls (see Table E5) in 250 μl DMEM/F-12 culture medium for 48 hours under normal cell culture conditions (37° C., 5% CO2). Medium contained 100 units/mL penicillin and 100 μg/mL streptomycin and was not supplemented with fetal calf serum.
After incubation for 48 hours, supernatants were collected, proteinase inhibitor cocktail (0.2%) was added and samples were frozen to −80° C. Additionally, the two PCLS from each well were transferred to a 2 mL safe-lock tube, snap-frozen in liquid nitrogen immediately, and stored at −80° C. Samples from the three replicates for each condition were not pooled.
Extracellular matrix remodeling evaluation. Biomarkers that reflect ECM remodeling were assessed in supernatant by Nordic Bioscience using the following competitive ELISA: PRO-C6 (C-terminal of type VI collagen C5 domain released as type VI collagen is incorporated into the matrix; measured on mesoscale platform [hsPRO-C6]): Reflects type VI collagen formation. Type VI collagen is a beaded filament collagen mainly found in the interface between the interstitial matrix and the basement membrane.
Statistics. […] Pooled data are presented as percentage of the “no treatment” control, calculated for individual regions and donors. Statistical significant differences were evaluated on pooled data by Kruskal-Wallis with Dunn's multiple comparisons test, comparing to the “no treatment” control. […]

[2] = molecular target: T1, IL-11R on STAT3 Reporter …; test: cell-based or functional assay
human IL-11Rα [3] = molecular target: T2, human IL-11Rα; test: BLI (Octet RED96e), mAb on protein G biosensors, hIL-11Rα in solution
Procedure: Association was carried out in the presence of a 2-fold dilution series of hIL-11Rα and was allowed to proceed for 120 seconds; dissociation was measured for 300 to 1200 seconds.

human IL-11Rα [4] = molecular target: T2, human IL-11Rα; test: competitive ELISA, IL-11R coated on plate; competitor: biotinylated 8E2 (0.1 µg/mL)
Procedure: (§1) Relative binding activity of the antibodies was tested by competitive ELISA using biotinylated mAbs 8E2 or TS7. Antibodies 8E2 and TS7 were biotinylated using sulfo-NHS Biotin (Thermo Fisher) per the manufacturer's instructions. IL-11R was coated onto ELISA plates (Nunc, MaxiSorp) at 2 μg/mL in PBS, and plates were blocked with 2% BSA in PBS. After washing the plate with water, antibodies to be tested were titrated across the plate in a final volume of 90 μL followed by addition of 10 μL of biotinylated 8E2 or biotinylated TS7, as indicated in Table E1 (0.1 μg/mL final concentration) to each well. Plates were incubated for 2 hours on a plate-shaker, followed by washing and addition of 100 μL/well of streptavidin-HRP (Jackson ImmunoResearch, 1/1000 dilution). After a further 1 hour incubation, plates were washed, developed with Ultra-TMB HRP substrate (Thermo Fisher), and stopped by the addition of 50 μL/well of 2 M sulfuric acid. Plates were read at 450 nm on an iD5 plate reader (Molecular Devices).

human IL-11Rα [5] = molecular target: T2, human IL-11Rα; test: competitive ELISA, IL-11R coated on plate; competitor: biotinylated TS7 (0.1 µg/mL)
Procedure: as §1

human IL-11Rα [6] = molecular target: T2, human IL-11Rα; test: BLI (Octet RED96e), mAb on anti-human constant domain (AHC) biosensors, hIL-11R in solution
Excerpt: A further series of antibodies were designed in which the residue at Kabat position 31 of the heavy chain was varied (mAbs 16-32). In this case an alternate biolayer interferometry assay was used to initially rank the antibodies compared to mAb5, the closest relative in sequence to mAbs 16-32. MAbs were loaded onto anti-human constant domain (AHC) biosensors (FortdBio) in 10× kinetics buffer consisting of PBS, 0.1% BSA, 0.02% Tween 20 for 120 s to achieve a spectral shift value of 0.8 to 1.2 nm. Association was carried out in the presence of 2-fold dilution series of hIL-1 IR and was allowed to proceed for 120 s. Dilution series started 10 nM. The dissociation in 10× kinetics buffer for 1200 s. Binding kinetic measurements were taken on an Octet RED96e instrument.

Row | IC50, STAT3 luciferase reporter assay (HEK293), inhibiting IL-11, Assay 1 [2] | IC50, STAT3 luciferase reporter assay (HEK293), inhibiting IL-11, Assay 2 [2] | IC50, STAT3 luciferase reporter assay (HEK293), inhibiting IL-11, Mean [2] | Kd (human IL-11Rα [3]) | koff (human IL-11Rα [3]) | kon (human IL-11Rα [3]) | IC50 (human IL-11Rα [4]) | Molecule | also measured
1 |  |  |  |  |  |  | 5.5 µg/mL | mAb4 (antibody, V domains shown, Expressed as human IgG4 (S228P EU)) VH: EVQLLESGGGLVQPGGSLRLSCAASGFTFSWYSMTWVRQAPGKGLEWVSSIVPYGDLTQYADSVKGRFTISRDNSKNTLYLQMNSLRAEDTAVYYCAKGPDWGSFDLWGRGTLVTVSS VL: DIQMTQSPSSLSASVGDRVTITCQASQDINNYLNWYQQKPGKAPKLLIYDASNLQTGVPSRFSGSGSGTDFTFTISSLQPEDIATYYCQQHEFQSPTFGPGTKVDIK | 
2 | 0.38 µg/mL | 0.33 µg/mL | 0.36 µg/mL | < 1 pM | < 1e-07 s⁻¹ | 84000 M⁻¹ s⁻¹ |  | mAb15 (antibody, V domains shown, Expressed as human IgG4 (S228P EU)) VH: EVQLLESGGGLVQPGGSLRLSCAASGFTFSWYSMTWVRQAPGKGLEWVSSIVPYGDLTQYADSVKGRFTISRDNSKNTLYLQMNSLRAEDTAVYYCAKGPGWGSFDLWGRGTLVTVSS VL: DIQMTQSPSSLSASVGDRVTITCQASQDINNYLNWYQQKPGKAPKLLIYDASNLQTGVPSRFSGSGSGTDFTFTISSLQPEDIATYYCQQHETQTPTFGPGTKVDIK | IC50 (human IL-11Rα [5]): 1.7 µg/mL
3 | 11 µg/mL | 0.39 µg/mL | 5.7 µg/mL | < 1 pM | < 1e-07 s⁻¹ | 800000 M⁻¹ s⁻¹ | 1.5 µg/mL | mAb6 (antibody, V domains shown, Expressed as human IgG4 (S228P EU)) VH: EVQLLESGGGLVQPGGSLRLSCAASGFTFSWYSMTWVRQAPGKGLEWVSSIVPYGDLTQYADSVKGRFTISRDNSKNTLYLQMNSLRAEDTAVYYCAKGPGWGSFDLWGRGTLVTVSS VL: DIQMTQSPSSLSASVGDRVTITCQASQDINNYLNWYQQKPGKAPKLLIYDASNLQTGVPSRFSGSGSGTDFTFTISSLQPEDIATYYCQQHEFQSPTFGPGTKVDIK | 

Continued, molecule first:

Row | Molecule | IC50, STAT3 luciferase reporter assay (HEK293), inhibiting IL-11, Assay 1 [2] | IC50, STAT3 luciferase reporter assay (HEK293), inhibiting IL-11, Assay 2 [2] | IC50, STAT3 luciferase reporter assay (HEK293), inhibiting IL-11, Mean [2] | Kd (human IL-11Rα [3]) | koff (human IL-11Rα [3]) | kon (human IL-11Rα [3]) | IC50 (human IL-11Rα [4]) | also measured
4 | COC(=O)c1ccc2c(c1)NC(=O)/C2=C(\Nc1ccc(N(C)C(=O)CN2CCN(C)CC2)cc1)c1ccccc1 [nintedanib, Nintedanib, reference compound] |  |  |  |  |  |  |  | effects on ECM remodeling ([1]; fibrotic human PCLS): ECM remodeling could be reduced; median levels of PRO-C6 compared to the no treatment (media) control ([1]; pooled data all donors and regions, mAb5 0.3, 3.0, 30 μg/mL, nintedanib 1 μM, isotype control 30 μg/mL): decreased
5 | mAb5 (antibody, V domains shown, Expressed as human IgG4 (S228P EU); also called mAb5 IL11RA Ab) VH: EVQLLESGGGLVQPGGSLRLSCAASGFTFSWYSMTWVRQAPGKGLEWVSSIVPYGDLTQYADSVKGRFTISRDNSKNTLYLQMNSLRAEDTAVYYCAKGPGWGSFDLWGRGTLVTVSS VL: DIQMTQSPSSLSASVGDRVTITCQASQDINNYLNWYQQKPGKAPKLLIYDASNLQTGVPSRFSGSGSGTDFTFTISSLQPEDIATYYCQQHESQSPTFGPGTKVDIK | 0.16 µg/mL | 0.18 µg/mL | 0.17 µg/mL | < 1 pM | < 1e-07 s⁻¹ | 63700 M⁻¹ s⁻¹ | 1.4 µg/mL | IC50 (human IL-11Rα [5]): 2.1 µg/mL; Kd (human IL-11Rα [6]): 50 pM; koff (human IL-11Rα [6]): 2.5e-05 s⁻¹; kon (human IL-11Rα [6]): 490000 M⁻¹ s⁻¹
6 | mAb3 (antibody, V domains shown, Expressed as human IgG4 (S228P EU)) VH: EVQLLESGGGLVQPGGSLRLSCAASGFTFSWYSMTWVRQAPGKGLEWVSSIVPYGDLTQYADSVKGRFTISRDNSKNTLYLQMNSLRAEDTAVYYCAKGPDWGSFDLWGRGTLVTVSS VL: DIQMTQSPSSLSASVGDRVTITCQASQDINNYLNWYQQKPGKAPKLLIYDASNLQTGVPSRFSGSGSGTDFTFTISSLQPEDIATYYCQQHESQSPTFGPGTKVDIK |  |  |  |  |  |  | 2.8 µg/mL | 
7 | mAb2 (antibody, V domains shown, Expressed as human IgG4 (S228P EU)) VH: EVQLLESGGGLVQPGGSLRLSCAASGFTFSWYSMTWVRQAPGKGLEWVSSIVPSGGHTQYADSVKGRFTISRDNSKNTLYLQMNSLRAEDTAVYYCAKGPDWGSFDLWGRGTLVTVSS VL: DIQMTQSPSSLSASVGDRVTITCQASQDINNYLNWYQQKPGKAPKLLIYDASNLQTGVPSRFSGSGSGTDFTFTISSLQPEDIATYYCQQHEFQSPTFGPGTKVDIK |  |  |  |  |  |  | > 30 µg/mL | 
